Assay [1] concerns the target MHC class II molecules on MHC class II-expressing Raji cells (human). Kind of assay: direct ELISA, plate-immobilised Raji cells; 10% FBS, 10,000 cells; 15.625 ng/ml. In general terms: ELISA stands for enzyme-linked immunosorbent assay.
For assay [2] the target is unchanged. The assay is described as follows: transfer cell ELISA, Raji cells; 15.63 ng/ml; plate row C.
The target is the same in assay [3]. Kind of assay: direct ELISA, plate-immobilised Raji cells; 10% FBS, 2,500 cells; 31.25 ng/ml.
The target is the same in assay [4]. The assay is described as follows: direct ELISA, plate-immobilised Raji cells; 10% FBS, 5,000 cells; 31.25 ng/ml.
Assay [5] shares this target. The assay is described as follows: transfer cell ELISA, Raji cells; 3.906 ng/ml; plate row C.
Assay [6] has the same target. Kind of assay: transfer cell ELISA, Raji cells; 7.813 ng/ml; plate row C.
For assay [7] the target is unchanged. The assay is described as follows: direct ELISA, plate-immobilised Raji cells; 5% BSA, 10,000 cells; 31.25 ng/ml.
Assay [8] has the same target. The assay is described as follows: transfer cell ELISA, Raji cells; 1.953 ng/ml; plate row D.
Assay [9] shares this target. Kind of assay: direct ELISA, plate-immobilised Raji cells; 10% FBS, 5,000 cells; 500 ng/ml.
Assay [10] has the same target. Kind of assay: direct ELISA, plate-immobilised Raji cells; 5% BSA, 10,000 cells; 125 ng/ml.
For assay [11] the target is unchanged. Kind of assay: direct ELISA, plate-immobilised Raji cells; 10% FBS, 2,500 cells; 62.5 ng/ml.
The target is the same in assay [12]. Kind of assay: transfer cell ELISA, Raji cells; 500 ng/ml; plate row D.
For assay [13] the target is unchanged. Kind of assay: direct ELISA, plate-immobilised Raji cells; 5% BSA, 10,000 cells; 250 ng/ml.
Assay [14] shares this target. The assay is described as follows: direct ELISA, plate-immobilised Raji cells; 5% BSA, 5,000 cells; 31.25 ng/ml.
The target is the same in assay [15]. Kind of assay: transfer cell ELISA, Raji cells; 3.906 ng/ml; plate row D.
Assay [16] shares this target. Kind of assay: direct ELISA, plate-immobilised Raji cells; 5% BSA, 5,000 cells; 500 ng/ml.
Assay [17] shares this target. Kind of assay: direct ELISA, plate-immobilised Raji cells; 0.5% Casein, 5,000 cells; 1000 ng/ml.
Assay [18] has the same target. Kind of assay: direct ELISA, plate-immobilised Raji cells; 0.5% Casein, 10,000 cells; 1000 ng/ml.
Assay [19] has the same target. The assay is described as follows: direct ELISA, plate-immobilised Raji cells; 0.5% Casein, 2,500 cells; 15.625 ng/ml.
Assay [20] has the same target. The assay is described as follows: direct ELISA, plate-immobilised Raji cells; 3% gelatin, 5,000 cells; 1000 ng/ml.
Assay [21] has the same target. The assay is described as follows: direct ELISA, plate-immobilised Raji cells; 3% gelatin, 2,500 cells; 31.25 ng/ml.
Assay [22] shares this target. Kind of assay: direct ELISA, plate-immobilised Raji cells; 0.5% Casein, 5,000 cells; 125 ng/ml.
Assay [23] has the same target. The assay is described as follows: direct ELISA, plate-immobilised Raji cells; 0.5% Casein, 2,500 cells; 31.25 ng/ml.
Assay [24] has the same target. The assay is described as follows: direct ELISA, plate-immobilised Raji cells; 3% gelatin, 5,000 cells; 125 ng/ml.
The target is the same in assay [25]. The assay is described as follows: direct ELISA, plate-immobilised Raji cells; 3% gelatin, 2,500 cells; 62.5 ng/ml.
The target is the same in assay [26]. The assay is described as follows: direct ELISA, plate-immobilised Raji cells; 0.5% Casein, 10,000 cells; 31.25 ng/ml.
Assay [27] shares this target. The assay is described as follows: direct ELISA, plate-immobilised Raji cells; 0.5% Casein, 10,000 cells; 500 ng/ml.
Assay [28] has the same target. Kind of assay: direct ELISA, plate-immobilised Raji cells; 0.5% Casein, 5,000 cells; 31.25 ng/ml.
Assay [29] has the same target. The assay is described as follows: transfer cell ELISA, Raji cells; 62.5 ng/ml.
Assay [30] has the same target. Kind of assay: direct ELISA, plate-immobilised Raji cells; 0.5% Casein, 10,000 cells; 62.5 ng/ml.
Assay [31] shares this target. The assay is described as follows: transfer cell ELISA, Raji cells; 500 ng/ml.
For assay [32] the target is unchanged. The assay is described as follows: direct ELISA, plate-immobilised Raji cells; 0.5% Casein, 2,500 cells; 250 ng/ml.
The target is the same in assay [33]. The assay is described as follows: direct ELISA, plate-immobilised Raji cells; 3% gelatin, 2,500 cells; 15.625 ng/ml.

Regarding “IMP321 treated with Peptide-N-Glycosidase F (PNGase F) (Fc fusion)”, the OD (ELISA signal) was 0.333 OD in assay [1]; 0.035 OD in assay [2]; 0.294 OD in assay [3]; 0.304 OD in assay [4]; 0.012 OD in assay [5]; 0.02 OD in [6]. The OD (ELISA signal) is 0.31 OD in assay [7]; 0.01 OD in assay [8]; 1.63 OD in assay [9]; 0.395 OD in assay [10]; 0.329 OD in [11]; 0.594 OD in assay [12]. The OD (ELISA signal) was found to be 0.91 OD in [13], 0.297 OD in assay [14], 0.012 OD in [15] and 1.36 OD in assay [16].
On to “IMP321, recombinant soluble human LAG-3Ig fusion protein (Fc fusion)”, for which the OD (ELISA signal) stood at 0.136 OD in assay [17]; 0.16 OD in assay [18]; 0.168 OD in assay [19]; 2.31 OD in assay [20]; 0.303 OD in [21]; 0.197 OD in [22]. The OD (ELISA signal) in assay [23] was determined as 0.149 OD; in [24] it was 0.823 OD; in assay [25], 0.399 OD; in [26] it was 0.18 OD; in assay [27], 0.188 OD; in assay [28] it was 0.143 OD. Besides, the OD (ELISA signal) in assay [29] was determined as 0.223 OD; in assay [30], 0.142 OD; in assay [31] it was 1.81 OD; in [32] it was 0.231 OD; in assay [33] it was 0.295 OD.

These data come from patent US20190361034A1.
